Data reported in US20080220446A1, “Method for Detecting and/or Removing Protein and/or Peptide Comprising a Cross-Beta Structure From an Aqueous Solution Comprising a Protein” (priority 2005, published 2008).

Assays:
tPA [1] = biological target: T1, tPA (Homo sapiens, UniProt P00750); experiment: tPA/plasminogen activation assay; format: biochemical; conditions: % of standardized positive control; 1:10 diluted samples
Method: β2-GPI was reduced and alkylated as follows. Sixhundredforty μl of β2-GPI stock was mixed with 640 μl of 8 M Urea (cooled solution) in 0.1 M Tris pH-8.2. The solution was degassed with N2 gas for approximately 6 minutes. From a 1 M DTT stock 12.8 μl was added to the solution, mixed and incubated for 3 hours at room temperature. A 1 M Iodoacetamide (Sigma; I-6125) was prepared, of which 25.6 μl was added to the β2-GPI reaction mixture. The solution was subsequently dialysed against PBS. […] Signals obtained with alkyl-β2gpi are compared with those obtained with native β2gpi starting material and with positive control acid/heat denatured amyloid-like misfolded γ-globulins.
Exiqon Peptide Immobilizer plates were blocked for 1 hour with PBS, 1% Tween20 and rinsed twice with distilled water. The conversion of the chromogenic substrate S-2251 (Chromogenix, Italy) by plasmin was kinetically measured at 37° C. on a Spectramax340 microplate reader at a wavelength of 405 nm. […] Denatured γ-globulins (100 μg/ml) with amyloid-like structure was used as reference and positive control. Lyophilized γ-globulins (Sigma, Mo., USA) were dissolved in a 1(:)1 volume ratio of 1,1,1,3,3,3-hexafluoro-2-propanol and trifluoro-acetic acid and subsequently dried under air. Dried γ-globulins was dissolved in H2O to a final concentration of 1 mg/ml and kept at room temperature for at least three days and subsequently stored at −20° C.
Protein therapeutics were obtained from the local hospital pharmacy and analyzed within the expiry limits as stated by the manufacturers.

tPA [2] = biological target: T1, tPA; experiment: Plasminogen-activation assay (tPA activation, S-2251); format: biochemical
Method: Plasmin (Pls) activity was assayed as described^16. Peptides and proteins that were tested for their stimulatory ability were regularly used at 100 μg ml^−1. […] Chromogenic substrate S-2251 (Chromogenix, Instrumentation Laboratory SpA, Milano, Italy) was used to measure Pls activity. Conversion of zymogen factor XII (#233490, Calbiochem, EMD Biosciences, Inc., San Diego, Calif.) to proteolytically active factor XII (factor XIIa) was assayed by measurement of the conversion of chromogenic substrate Chromozym-PK (Roche Diagnostics, Almere, The Netherlands) by kallikrein. Chromozym-PK was used at a concentration of 0.3 mM. Factor XII, human plasma prekallikrein (#529583, Calbiochem) and human plasma cofactor high-molecular weight kininogen (#422686, Calbiochem) were used at concentrations of 1 μg ml^−1. […] Assays were performed using microtiter plates (Costar, Cambridge, Mass., USA). Peptides and proteins were tested for their ability to activate factor XII. 150 μg ml^−1 kaolin, an established activator of factor XII was used as positive control and solvent (H2O) as negative control. The conversion of Chromozym-PK was recorded kinetically at 37° C. for at least 60 minutes. Assays were done in duplicate.
Formulated protein therapeutics were obtained from the local hospital pharmacy and were used as supplied by the manufacturers. […] Lyophilized therapeutics were dissolved according to the manufacturers recommendations. GH, zinc-insulin, Cealb and gelatin were stored at −20, 4, room temperature, 37 and 65° C. Other protein therapeutics were only kept at 4° C., and assayed for the presence of cross-β structure at shown time points. Enhancement in fluorescence of ThT and Congo red was measured with all formulated protein therapeutics. For this purpose, proteins were diluted to the indicated concentrations. […] Zinc-insulin was diluted tenfold in the activation assay, GH was diluted to a final concentration of 500 μg ml^−1. Activation of factor XII and prekallikrein by the therapeutics was tested in the chromogenic factor XII assay (see above). […] After coating, plates were blocked with Blocking Reagent (Roche Diagnostics, Almere, The Netherlands).
To prepare structurally altered ovalbumin (OVA) with amyloid cross-β structures, purified OVA (Sigma, A-7641, lot 071k7094) was heated to 85° C. One mg ml^−1 OVA in 67 mM NaPi buffer pH 7.0, 100 mM NaCl, was heated for two cycles in PCR cups in a PTC-200 thermal cycler (MJ Research, Inc., Waltham, Mass., USA). In each cycle, OVA was heated from 30 to 85° C. at a rate of 5° C./min. Native OVA (nOVA) and heat-denatured OVA (dOVA) were tested in the ThT fluorescence assay and in the Plg-activation assay. In the fluorescence assay and in the Plg-activation assay, 25 and 100 μg ml^−1 nOVA and dOVA were tested, respectively. TEM images of nOVA and dOVA were taken to check for the presence of large aggregates.
MSA (#126674, Calbiochem) was dissolved in 8 M urea, 100 mM Tris-HCl pH 8.2, at 10 mg ml^−1 final concentration. Dithiothreitol (DTT) was added to a final concentration of 10 mM. Air was replaced by N2 and the solution was incubated for 2 h at room temperature. Then, the solution was transferred to ice and iodoacetamide was added from a 1 M stock to a final concentration of 20 mM. […] Alkyl-MSA was dialyzed against H2O before use. […] In the ThT-fluorescence assay 25 μg ml^−1 nMSA and alkyl-MSA were tested, and in the Plg-activation assay 100 μg ml^−1 was tested. The presence of aggregates or fibrils was analyzed using TEM.
Lyophilized sterile glucagon was dissolved at 1 mg ml^−1 in H2O with 10 mM HCl. The solution was subsequently kept at 37° C. for 24 h, at 4° C. for 14 days and again at 37° C. for 9 days. […] TEM analysis was performed to assess the presence of large multimeric structures.

[3] = Stability testing of biopharmaceuticals under denaturing conditions; format: physicochemical; conditions: after exposure to harsh denaturing conditions (low pH or heat)
Method: For this purpose, 5 mg/mL Glucagon (Glucagen; Novo Nordisk Farma B. V., Alphen aan de Rijn, The Netherlands) was incubated at 37° C. in 0.01 M HCl for 48 hours. One mg/mL Etanercept (Enbrel; Wyeth Pharmaceuticals B. V., Hoofddorp, The Netherlands) in 67 mM sodium phosphate buffer, 100 mM NaCl pH 7.0 was gradually heated from 30° C. to 85° C. over a period of 12 minutes and afterwards cooled to 4° C. for 5 minutes, this treatment was repeated 4 times. Abciximab (Reopro; Centocor B. V., Leiden, The Netherlands) and Infliximab (Remicade; Schering-Plough B. V., Utrecht, The Netherlands) were incubated at 65° C. for 16 and 72 hours, respectively.

T1 sequence (P00750 36-562): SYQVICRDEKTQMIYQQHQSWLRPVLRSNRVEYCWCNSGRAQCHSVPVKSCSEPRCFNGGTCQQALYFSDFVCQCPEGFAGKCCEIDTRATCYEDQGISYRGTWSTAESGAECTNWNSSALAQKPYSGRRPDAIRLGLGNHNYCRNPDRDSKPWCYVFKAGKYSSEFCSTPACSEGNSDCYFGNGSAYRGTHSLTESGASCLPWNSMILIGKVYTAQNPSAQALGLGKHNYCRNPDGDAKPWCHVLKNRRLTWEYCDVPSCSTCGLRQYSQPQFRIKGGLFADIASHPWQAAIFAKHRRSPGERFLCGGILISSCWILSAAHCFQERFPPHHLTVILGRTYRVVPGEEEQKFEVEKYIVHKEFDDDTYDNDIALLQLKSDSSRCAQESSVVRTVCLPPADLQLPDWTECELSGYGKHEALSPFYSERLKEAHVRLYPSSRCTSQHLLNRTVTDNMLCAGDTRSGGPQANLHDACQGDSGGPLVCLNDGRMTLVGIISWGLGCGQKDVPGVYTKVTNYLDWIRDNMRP

| Substance | tPA activation Max. Activation (tPA [1]) [%] | tPA activation (tPA [2]; protein solutions stored at 4° C.) | amyloid-like properties (ThT-fluorescence and tPA activation) [3] | Pls activity (tPA activating properties) (tPA [2]; after storage at 65° C.) |
| --- | --- | --- | --- | --- |
| Somatropin: human growth hormone (Genotropin, Pharmacia) | 113.95 | induced tPA activation | – | – |
| Abciximab: abciximab, an inhibitor of blood platelet aggregation (ReoPro, Centocor) | 0 | – | amyloid-like properties are adopted | induced Pls activity |
